Target: T1, ΔHNH-Cas9 (ΔHNH-4; T769-K918 replaced by GGSGGS) (Streptococcus pyogenes)
T1 chain: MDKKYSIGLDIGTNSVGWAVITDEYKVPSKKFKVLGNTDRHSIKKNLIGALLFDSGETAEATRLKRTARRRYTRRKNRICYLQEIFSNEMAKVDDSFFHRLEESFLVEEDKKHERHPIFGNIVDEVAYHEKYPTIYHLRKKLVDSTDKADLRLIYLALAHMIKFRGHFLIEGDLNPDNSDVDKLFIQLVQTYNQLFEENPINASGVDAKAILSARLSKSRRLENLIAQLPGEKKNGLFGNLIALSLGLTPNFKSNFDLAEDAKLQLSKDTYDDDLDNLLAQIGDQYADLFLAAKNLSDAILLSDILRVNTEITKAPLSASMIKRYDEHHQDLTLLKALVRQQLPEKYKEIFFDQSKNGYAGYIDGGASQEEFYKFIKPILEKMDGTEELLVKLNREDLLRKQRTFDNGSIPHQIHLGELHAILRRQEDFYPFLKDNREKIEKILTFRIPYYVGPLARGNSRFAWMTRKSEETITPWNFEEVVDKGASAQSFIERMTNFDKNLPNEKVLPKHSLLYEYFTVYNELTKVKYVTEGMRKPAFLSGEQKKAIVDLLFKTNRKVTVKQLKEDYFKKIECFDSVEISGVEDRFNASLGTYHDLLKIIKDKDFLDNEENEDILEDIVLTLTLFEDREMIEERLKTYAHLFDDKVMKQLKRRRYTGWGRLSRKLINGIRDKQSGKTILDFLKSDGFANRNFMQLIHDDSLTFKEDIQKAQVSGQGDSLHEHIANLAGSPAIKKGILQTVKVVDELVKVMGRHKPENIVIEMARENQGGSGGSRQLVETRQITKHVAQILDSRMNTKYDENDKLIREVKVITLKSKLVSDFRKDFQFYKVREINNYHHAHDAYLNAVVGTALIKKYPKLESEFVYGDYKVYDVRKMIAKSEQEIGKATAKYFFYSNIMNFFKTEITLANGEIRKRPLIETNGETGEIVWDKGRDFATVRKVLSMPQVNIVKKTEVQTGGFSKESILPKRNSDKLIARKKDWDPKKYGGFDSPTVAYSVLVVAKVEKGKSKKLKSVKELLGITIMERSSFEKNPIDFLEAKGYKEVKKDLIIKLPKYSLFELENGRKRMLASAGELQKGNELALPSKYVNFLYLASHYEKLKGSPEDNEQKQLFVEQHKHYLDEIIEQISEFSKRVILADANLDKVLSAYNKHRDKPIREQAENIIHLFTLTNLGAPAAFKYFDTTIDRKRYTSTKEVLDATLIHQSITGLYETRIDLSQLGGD
Experiment: EMSA; PAM TGG; 5 mM MgCl2, 100 mM KCl, pH 7.5, 50 ug/mL heparin, room temperature, 100 nM sgRNA
Conditions: tags: N-terminal His10-MBP, TEV protease treated; label: 5'-radiolabel; single-guide RNA
Procedure: Binding reactions (15 μL) were performed at room temperature in Reaction Buffer supplemented with 50 μg/mL heparin using <0.1 nM radiolabeled dsDNA substrates. Reactions were resolved by 8% native polyacrylamide gel electrophoresis (0.5×TBE, 5 mM MgCl₂) for 1.5-2 hr at 4° C. in a running buffer containing 0.5×TBE and 5 mM MgCl₂. Reactions were visualized by phosphorimaging (GE Healthcare).
Reactions were resolved by 8% native polyacrylamide gel electrophoresis. […] Solid lines represent fits from binding isotherms.

B1: sgRNA (bacteriophage target) ; 55-bp DNA substrate (ssRNA ; dsDNA)
RNA: GACGCAUAAAGAUGAGACGCGUUUUAGAGCUAUGCUGUUUUGGAAACAAAACAGCAUAGCAAGUUAAAAUAAGGCUAGUCCGUUAUCAACUUGAAAAAGUGGCACCGAGUCGGUGCUUUUUUUGGAUC
DNA 1: AGCAGAAATCTCTGCTGACGCATAAAGATGAGACGCTGGAGTACAAACGTCAGCT
DNA 2: AGCTGACGTTTGTACTCCAGCGTCTCATCTTTATGCGTCAGCAGAGATTTCTGCT
Kd: 1.2 nM

Reference: US20180298360, “CAS9 VARIANTS AND METHODS OF USE THEREOF” (The Regents of the University of California, published 2018)
